Results as given in publication PMC3285539 (Nature, 2012).

B7: Rpt3 (natural protein)
chain: MEELGIVTPVEKAVEEKPAVKSYASLLAQLNGTVNNNSALSNVNSDIYFKLKKLEKEYELLTLQEDYIKDEQRHLKRELKRAQEEVKRIQSVPLVIGQFLEPIDQNTGIVSSTTGMSYVVRILSTLDRELLKPSMSVALHRHSNALVDILPPDSDSSISVMGENEKPDVTYADVGGLDMQKQEIREAVELPLVQADLYEQIGIDPPRGVLLYGPPGTGKTMLVKAVANSTKAAFIRVNGSEFVHKYLGEGPRMVRDVFRLARENAPSIIFIDEVDSIATKRFDAQTGSDREVQRILIELLTQMDGFDQSTNVKVIMATNRADTLDPALLRPGRLDRKIEFPSLRDRRERRLIFGTIASKMSLAPEADLDSLIIRNDSLSGAVIAAIMQEAGLRAVRKNRYVILQSDLEEAYATQVKTDNTVDKFDFYK

Assays:
[1] = target: T1, Rpn1 (S. cerevisiae, UniProt P38764 1-993); assay: electron microscopy, variance maps
T1 sequence: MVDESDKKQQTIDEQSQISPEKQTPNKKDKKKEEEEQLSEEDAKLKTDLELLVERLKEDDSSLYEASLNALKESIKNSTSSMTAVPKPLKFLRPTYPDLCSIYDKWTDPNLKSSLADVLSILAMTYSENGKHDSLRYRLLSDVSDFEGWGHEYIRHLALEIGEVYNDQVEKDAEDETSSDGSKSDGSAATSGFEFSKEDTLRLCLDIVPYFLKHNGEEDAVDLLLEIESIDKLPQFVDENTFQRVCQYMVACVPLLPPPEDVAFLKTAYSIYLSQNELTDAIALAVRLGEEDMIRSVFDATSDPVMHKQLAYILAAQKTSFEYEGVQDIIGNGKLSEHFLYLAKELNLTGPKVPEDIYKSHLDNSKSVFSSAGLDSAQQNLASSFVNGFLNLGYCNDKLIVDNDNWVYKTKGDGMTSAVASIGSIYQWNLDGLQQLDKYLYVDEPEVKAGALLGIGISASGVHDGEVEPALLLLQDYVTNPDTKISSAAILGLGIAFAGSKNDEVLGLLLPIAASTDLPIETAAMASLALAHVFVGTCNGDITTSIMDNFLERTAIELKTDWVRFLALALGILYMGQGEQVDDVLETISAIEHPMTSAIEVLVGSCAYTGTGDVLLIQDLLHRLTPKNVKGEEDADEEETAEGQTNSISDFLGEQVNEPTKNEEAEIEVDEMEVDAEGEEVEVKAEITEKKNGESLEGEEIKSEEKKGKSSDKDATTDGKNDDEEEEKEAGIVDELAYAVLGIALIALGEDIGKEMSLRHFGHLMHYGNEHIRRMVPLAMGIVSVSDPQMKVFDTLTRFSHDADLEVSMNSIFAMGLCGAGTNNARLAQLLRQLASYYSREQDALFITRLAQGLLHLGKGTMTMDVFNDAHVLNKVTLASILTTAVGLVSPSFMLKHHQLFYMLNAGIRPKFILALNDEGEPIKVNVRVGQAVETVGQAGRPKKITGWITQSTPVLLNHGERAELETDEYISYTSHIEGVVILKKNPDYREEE

[2] = target: B7; assay: cryo-EM structure
[3] = target: T2, Rpn6 (S. cerevisiae, UniProt Q12377 1-434); assay: cryo-EM structure
T2 sequence: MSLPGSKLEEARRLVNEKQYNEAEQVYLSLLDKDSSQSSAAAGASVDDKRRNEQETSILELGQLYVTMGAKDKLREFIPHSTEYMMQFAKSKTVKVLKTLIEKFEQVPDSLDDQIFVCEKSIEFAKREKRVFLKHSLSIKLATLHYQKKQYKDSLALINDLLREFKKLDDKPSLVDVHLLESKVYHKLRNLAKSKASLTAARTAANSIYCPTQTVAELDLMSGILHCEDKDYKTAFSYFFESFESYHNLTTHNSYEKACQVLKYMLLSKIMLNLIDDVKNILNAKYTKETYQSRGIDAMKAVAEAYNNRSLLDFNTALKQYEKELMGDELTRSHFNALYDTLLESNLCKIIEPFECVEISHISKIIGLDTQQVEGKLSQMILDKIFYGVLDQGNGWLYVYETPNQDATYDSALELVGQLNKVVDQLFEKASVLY

[4] = target: T3, Rpn2 (S. cerevisiae, UniProt P32565 1-945); assay: cryo-EM structure
T3 sequence: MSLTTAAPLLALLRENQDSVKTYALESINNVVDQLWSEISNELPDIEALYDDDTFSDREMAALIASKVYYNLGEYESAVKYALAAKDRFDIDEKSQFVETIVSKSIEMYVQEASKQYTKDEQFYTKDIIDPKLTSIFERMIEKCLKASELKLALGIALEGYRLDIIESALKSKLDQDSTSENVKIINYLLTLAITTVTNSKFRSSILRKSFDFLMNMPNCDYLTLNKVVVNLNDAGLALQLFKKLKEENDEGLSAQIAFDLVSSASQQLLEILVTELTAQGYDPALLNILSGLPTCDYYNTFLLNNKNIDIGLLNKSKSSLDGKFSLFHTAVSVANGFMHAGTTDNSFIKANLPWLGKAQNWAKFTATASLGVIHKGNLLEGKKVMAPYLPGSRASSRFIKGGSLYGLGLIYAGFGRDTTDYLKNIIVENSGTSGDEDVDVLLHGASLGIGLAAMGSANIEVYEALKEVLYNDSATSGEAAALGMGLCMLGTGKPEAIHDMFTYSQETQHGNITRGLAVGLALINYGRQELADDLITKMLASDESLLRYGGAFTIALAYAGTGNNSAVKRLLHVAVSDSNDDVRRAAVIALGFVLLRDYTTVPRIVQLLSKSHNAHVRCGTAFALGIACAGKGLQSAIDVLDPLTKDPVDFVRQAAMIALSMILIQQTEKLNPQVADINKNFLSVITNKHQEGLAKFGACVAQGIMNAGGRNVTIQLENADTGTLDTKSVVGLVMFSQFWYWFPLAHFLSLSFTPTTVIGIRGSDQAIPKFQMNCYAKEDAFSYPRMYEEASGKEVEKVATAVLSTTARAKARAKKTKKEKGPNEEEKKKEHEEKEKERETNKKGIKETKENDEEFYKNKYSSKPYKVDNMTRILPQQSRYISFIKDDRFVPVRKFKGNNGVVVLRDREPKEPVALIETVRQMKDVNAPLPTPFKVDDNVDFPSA

[5] = target: T4, Rpn5 (S. cerevisiae, UniProt Q12250 1-445); assay: cryo-EM structure
T4 sequence: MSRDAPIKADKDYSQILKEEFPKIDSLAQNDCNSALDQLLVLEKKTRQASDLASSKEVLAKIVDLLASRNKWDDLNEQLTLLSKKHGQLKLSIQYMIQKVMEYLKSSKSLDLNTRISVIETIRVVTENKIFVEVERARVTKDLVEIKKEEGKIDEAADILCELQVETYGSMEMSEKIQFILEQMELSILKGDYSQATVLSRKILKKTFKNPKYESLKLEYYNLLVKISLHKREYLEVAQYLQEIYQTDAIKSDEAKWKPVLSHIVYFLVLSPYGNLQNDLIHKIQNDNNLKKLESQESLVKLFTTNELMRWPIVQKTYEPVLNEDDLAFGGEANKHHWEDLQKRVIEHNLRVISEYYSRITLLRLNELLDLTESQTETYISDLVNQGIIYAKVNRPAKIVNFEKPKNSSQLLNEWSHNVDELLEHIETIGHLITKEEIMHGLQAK

[6] = target: Rpt2 (S. cerevisiae, UniProt P40327 1-437); assay: cryo-EM structure
Sequence of Rpt2 (P40327 whole entry): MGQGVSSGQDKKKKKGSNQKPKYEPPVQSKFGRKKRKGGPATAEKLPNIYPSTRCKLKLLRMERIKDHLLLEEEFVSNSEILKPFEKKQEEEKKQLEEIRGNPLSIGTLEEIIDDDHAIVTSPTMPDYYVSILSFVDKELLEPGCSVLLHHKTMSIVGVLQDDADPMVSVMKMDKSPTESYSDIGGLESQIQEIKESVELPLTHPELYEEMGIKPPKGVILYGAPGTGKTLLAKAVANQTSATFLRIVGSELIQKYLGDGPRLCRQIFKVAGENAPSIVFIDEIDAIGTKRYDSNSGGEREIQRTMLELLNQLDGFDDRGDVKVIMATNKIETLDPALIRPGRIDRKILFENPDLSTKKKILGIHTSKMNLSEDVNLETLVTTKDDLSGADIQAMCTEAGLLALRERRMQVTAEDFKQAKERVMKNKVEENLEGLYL

B1: Ubp6 (enzyme)
chain: MSGETFEFNIRHSGKVYPITLSTDATSADLKSKAEELTQVPSARQKYMVKGGLSGEESIKIYPLIKPGSTVMLLGTPDANLISKPAKKNNFIEDLAPEQQVQQFAQLPVGFKNMGNTCYLNATLQALYRVNDLRDMILNYNPSQGVSNSGAQDEEIHKQIVIEMKRCFENLQNKSFKSVLPIVLLNTLRKCYPQFAERDSQGGFYKQQDAEELFTQLFHSMSIVFGDKFSEDFRIQFKTTIKDTANDNDITVKENESDSKLQCHISGTTNFMRNGLLEGLNEKIEKRSDLTGANSIYSVEKKISRLPKFLTVQYVRFFWKRSTNKKSKILRKVVFPFQLDVADMLTPEYAAEKVKVRDELRKVEKEKNEKEREIKRRKFDPSSSENVMTPREQYETQVALNESEKDQWLEEYKKHFPPNLEKGENPSCVYNLIGVITHQGANSESGHYQAFIRDELDENKWYKFNDDKVSVVEKEKIESLAGGGESDSALILMYKGFGL
Q: Does B1 bind [1]?
A: Result: binds

B2: 20S core subunit α2 (natural protein)
chain: MTDRYSFSLTTFSPSGKLGQIDYALTAVKQGVTSLGIKATNGVVIATEKKSSSPLAMSETLSKVSLLTPDIGAVYSGMGPDYRVLVDKSRKVAHTSYKRIYGEYPPTKLLVSEVAKIMQEATQSGGVRPFGVSLLIAGHDEFNGFSLYQVDPSGSYFPWKATAIGKGSVAAKTFLEKRWNDELELEDAIHIALLTLKESVEGEFNGDTIELAIIGDENPDLLGYTGIPTDKGPRFRKLTSQEINDRLEAL
Q: Which results are given for B2?
A: binding result [2]: binds; binding result [3]: binds

B3: Rpn12 (natural protein)
chain: MPSLAELTKSLSIAFENGDYAACEKLLPPIKIELIKNNLLIPDLSIQNDIYLNDLMITKRILEVGALASIQTFNFDSFENYFNQLKPYYFSNNHKLSESDKKSKLISLYLLNLLSQNNTTKFHSELQYLDKHIKNLEDDSLLSYPIKLDRWLMEGSYQKAWDLLQSGSQNISEFDSFTDILKSAIRDEIAKNTELSYDFLPLSNIKALLFFNNEKETEKFALERNWPIVNSKVYFNNQSKEKADYEDEMMHEEDQKTNIIEKAMDYAISIENIV
Q: Does B3 bind [4]?
A: Result: binds

B4: Rpn13 (natural protein)
chain: MSMSSTVIKFRAGVCEYNEDSRLCTPIPVQGEIEIKPNEEEELGFWDFEWRPTEKPVGRELDPISLILIPGETMWVPIKSSKSGRIFALVFSSNERYFFWLQEKNSGNLPLNELSAKDKEIYNKMIGVLNNSSESDEEESNDEKQKAQDVDVSMQD
Q: Does B4 bind [4]?
A: Result: binds

B5: 20S core subunit α1 (natural protein)
chain: MSGAAAASAAGYDRHITIFSPEGRLYQVEYAFKATNQTNINSLAVRGKDCTVVISQKKVPDKLLDPTTVSYIFCISRTIGMVVNGPIPDARNAALRAKAEAAEFRYKYGYDMPCDVLAKRMANLSQIYTQRAYMRPLGVILTFVSVDEELGPSIYKTDPAGYYVGYKATATGPKQQEITTNLENHFKKSKIDHINEESWEKVVEFAITHMIDALGTEFSKNDLEVGVATKDKFFTLSAENIEERLVAIAEQD
Q: Does B5 bind [2]?
A: Result: binds

Q: Does B5 bind [5]?
A: Result: binds

B6: 20S core subunit α3 (natural protein)
chain: MGSRRYDSRTTIFSPEGRLYQVEYALESISHAGTAIGIMASDGIVLAAERKVTSTLLEQDTSTEKLYKLNDKIAVAVAGLTADAEILINTARIHAQNYLKTYNEDIPVEILVRRLSDIKQGYTQHGGLRPFGVSFIYAGYDDRYGYQLYTSNPSGNYTGWKAISVGANTSAAQTLLQMDYKDDMKVDDAIELALKTLSKTTDSSALTYDRLEFATIRKGANDGEVYQKIFKPQEIKDILVKTGITKKDEDEEADEDMK
Q: Does B6 bind [6]?
A: Result: binds

Q: Does B7 bind [4]?
A: Result: binds

Q: Does B7 bind [5]?
A: Result: binds

Q: Does B7 bind [3]?
A: Result: binds

B8: Rpn7 (natural protein)
chain: MVDVEEKSQEVEYVDPTVNRVPNYEVSEKAFLLTQSKVSIEQRKEAAEFVLAKIKEEEMAPYYKYLCEEYLVNNGQSDLEHDEKSDSLNEWIKFDQELYNELCKKNESKIKELNEKIQKLEEDDEGELEQAQAWINLGEYYAQIGDKDNAEKTLGKSLSKAISTGAKIDVMLTIARLGFFYNDQLYVKEKLEAVNSMIEKGGDWERRNRYKTYYGIHCLAVRNFKEAAKLLVDSLATFTSIELTSYESIATYASVTGLFTLERTDLKSKVIDSPELLSLISTTAALQSISSLTISLYASDYASYFPYLLETYANVLIPCKYLNRHADFFVREMRRKVYAQLLESYKTLSLKSMASAFGVSVAFLDNDLGKFIPNKQLNCVIDRVNGIVETNRPDNKNAQYHLLVKQGDGLLTKLQKYGAAVRLTGSDRV
Q: Does B8 bind [6]?
A: Result: binds
